Test results reported in the supplement of paper PMC10126150.
± gives the standard deviation of the averaged measurements.

The sequences below were run on ATP (assay: switch fluorescence ratio, 500 uM ATP over buffer (Cy3 cluster intensity, sum of 5 cycles each) (fold (ratio)); higher = stronger signal-on switching upon ATP binding; sequences stand for … in TCGTCGGCAGCGTCAGATGTGTATAAGAGACAGTTTTTTTTTTTTTTTTTTTTTTTTT…TC). Settings: aptamer strand: ATP DNA aptamer (quencher-CACCTGGGGGAGTATTGCGGAGGAAGG + anchor), 100 nM annealed; ATP concentration: 500 uM.
In short: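 For every switch-domain sequence, the fluorescence ratio is the mean of per-cluster values, each being summed target-cycle Cy3 intensity over summed buffer-cycle Cy3 intensity. Clusters outside 100-1000 RFU were excluded. On a modified Illumina MiSeq flow-cell, the Cy3-labelled switching-strand clusters were annealed to 100 nM quencher-labelled ATP aptamer, imaged in selection buffer and then after 15 min with 500 uM ATP at 22 °C. Five such cycles were run, with NaOH stripping and re-annealing between them.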
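Further: ATP exposure 15 min at 22 °C before imaging.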

In order of rising switch fluorescence ratio:
1. AGAGTGTTTC  0.943 ± 0.038
2. GTTATTATGC  0.952 ± 0.035
3. GCGGTACGCG  0.953 ± 0.012
4. GAGAGTTAAG  0.9677 ± 0.0074
5. TATTATCTGC  0.971 ± 0.021
6. GCCTGTGGGG  0.977 ± 0.019
7. AAGAAAGGGG  0.979 ± 0.034
8. TTAGGAGAGC  0.979 ± 0.014
9. TTTTTCAATG  0.979 ± 0.042
10. AAATTCATGG  0.9809 ± 0.0021
11. TGGAAAGTGG  0.9818 ± 0.005
12. TGGATAAAGT  0.985 ± 0.013
13. GGTAGGTGTC  0.985 ± 0.031
14. GTATTAGGAA  0.985 ± 0.031
15. AAGGTTGTAA  0.985 ± 0.021
16. GTTAATTTAG  0.987 ± 0.01
17. GGCTGGCTGA  0.987 ± 0.045
18. TTGGTGGGTA  0.988 ± 0.013
19. ATTATGTAGG  0.988 ± 0.015
20. AGGACTGAAG  0.989 ± 0.07
21. TTTGAAAATT  0.99 ± 0.06
22. GTCGTAGGAT  0.9915 ± 0.0065
23. ATAAAGGTTG  0.993 ± 0.016
24. AACCTTATTT  0.9965 ± 0.0022
25. GAGCCGGGTA  0.9982 ± 0.0063
26. GGTTTTGGGA  0.998 ± 0.019
27. ATTGGTTTGT  0.998 ± 0.013
28. ATGGGTTAGC  0.998 ± 0.011
29. GATTAAATAG  0.9988 ± 0.0032
30. GGGTGAGGCA  0.9988 ± 0.0086
31. GGGTATTGTA  0.999 ± 0.02
32. GCTAATTGGG  1.004 ± 0.0021
33. AGTTTTCAAG  1 ± 0.026
34. CGGGTTTGTC  1 ± 0.035
35. GCATGATAAT  1.004 ± 0.0013
36. TAAGGAGGAT  1 ± 0.017
37. GTAGTCGGAT  1.002 ± 0.0021
38. ATTCCTTTTT  0.9996 ± 0.0094
39. TTTCGGGATT  1 ± 0.012
40. CATGGTCATT  1 ± 0.019
41. TGTGGGATGG  1 ± 0.028
42. CAGGAAGGGG  1 ± 0.032
43. TAAATGATTT  1.01 ± 0.014
44. TAAAATTCTT  1.01 ± 0.025
45. TGGAGGGATG  1.01 ± 0.054
46. TTTTTTGCTA  1.01 ± 0.026
47. AGGGAGTACA  1.01 ± 0.013
48. TCAAAAAGGA  1.01 ± 0.031
49. ATATATTTTA  1.01 ± 0.022
50. GGCTCATCA  1.01 ± 0.023
51. TATGGGTGAT  1.01 ± 0.034
52. TCGATTTTTT  1.01 ± 0.028
53. GGTGTAAAAG  1.014 ± 0.0036
54. GGTTTCAGCA  1.01 ± 0.042
55. AAAGGCCCGA  1.0084 ± 0.00039
56. TTAAAAATGA  1.02 ± 0.021
57. ATAAGTTTGG  1.02 ± 0.033
58. GAATATTTTT  1.02 ± 0.034
59. TTTTGATTAA  1.02 ± 0.041
60. TAAAGAGTCG  1.02 ± 0.063
61. GGGAGTTGGA  1.02 ± 0.024
62. TCAGGCTAGG  1.02 ± 0.028
63. GATCCGGCGT  1.03 ± 0.053
64. AGTCCGTCGT  1.026 ± 0.0068
65. TCGGGAGCAG  1.03 ± 0.054
66. AATCGGTAAT  1.027 ± 0.0081
67. ATAAAGTTTC  1.03 ± 0.015
68. TATGGCCTGG  1.04 ± 0.015
69. GTAGGGGATC  1.04 ± 0.058
70. AAAGGCACCC  1.05 ± 0.019
71. CGTGGGGAGG  1.05 ± 0.017
72. CTGAGGGCG  1.045 ± 0.0058
73. TGGTCTATGC  1.05 ± 0.012
74. TTTATGTGGG  1.05 ± 0.12
75. GAGAAATGGG  1.07 ± 0.038
76. GTGATGCTGC  1.07 ± 0.015
77. TTTGAGGATA  1.07 ± 0.021
78. AATAGCTACT  1.076 ± 0.01
79. CGTATATGGC  1.1 ± 0.14
80. TTTTAAGCTA  1.12 ± 0.2
81. CACTTTCACA  1.17 ± 0.055
82. GCCTTAGGTG  1.4 ± 0.12
83. TATTAACCTT  1.6415 ± 0.00013
84. TTCTAAGGGG  1.93 ± 1.3
85. CCGCAGGGGT  3.1 ± 2.8
